1 molecule from patent US20110020353A1 (published 2011) can be followed below.

The assay deals with T1, 161P2F10B variant 1 (human), on the cell surface (human, UniProt O14638 1-875).
T1 construct: Reported to be dimeric on the cell surface; also called 161P2F10B v.1; CD203c
The assay is described as follows: FACS on KU-812 cells, serial dilutions, one site binding fit.

The Kd is the constant that tells how readily two partners part at equilibrium. Read a low Kd as tighter binding.

B1: Ha16-1.42 (antibody, V domains shown)
VH: EVQLVQSGAEVKKPGESLKISCKGSGYRFTSYWIGWVRQMPGKGLEWMGIIYPGDSDTRYSPSFQGQVTISADKSISTAYLQWSSLKASDTAMYYCARKDYYYYSMDVWGQGTTVTVSS
VL: QSALTQPASVSGSPGQSITISCTGTSSDVGRFNYVSWYQQRPGKAPKLMIYAVNIRPSGVSNRFSGSKSGNTASLTISGLQAEDEAGYYCSSYTSSSTLLVFGGGTKLTVLG
Turning to B1, the Kd came out at 20 pM.
